According to paper PMC5774872:

B1: unnamed (parent)
chain 1: MSAAILLAPGDVIKRSSEELKQRQIQINLVDWMESEGGKEDKTEPKEESKAEGSKDGEGTQSESGQKEEGGKETKDADVDRRIHTAVGSGSGTKGSGERANENANRGDGKVGGGGGDADAGVGATGTNGGRWVVLTEEIARAIESKYGTKIDVYRDEVPAQIIEVERSLQKELGISREGVAEQTERLRDLRRKEKNGTHAKAVERGGRKQRKKAHGDAQREGVEEEKTSEEPARIGITIEGVMSQKKLLSMIGGVERKMAPIGARESAVMLVSNSIKDVVRATAYFTAPTGDPHWKEVAREASKKKNILAYTSTGGDVKTEFLHLIDHL
chain 2: MAAQNEQRPERIKTTPYLEGDVLSSDSGPLLSVFALQEIMQKVRQVQADYMTATREVDFTVPDVQQILDDIKALAAAQVYKIVKVPSTSFRHIVTQSRDRVLRVDTYYEEMSQVGDVITEDEPEKFYSTIIKKVRFIRGKGSFILHDIPARDHRGMEVAEPEVLGVEFKNVLPVLTAEHRAMIQNALDGSIIENGNVATRDVDVFIGACSEPFYRIYNRFQGYIEAVQLQELRNSIGWLERLGQRKRITYSQEVLTDFRRQDMIWVLALQLPVNPQVVWDVPRSSIANLIMNIATCLPTGEYIAPNPRISSITLTQRITTTGPFAILTGSTPTAQQLNDVRKIYLALMFPGQIILDLKIDPGERMDPAVRMVAGVVGHLLFTAGGRFTNLTQNMARQLDIALNDYLLYMYNTRVQVNYGPTGEPLDFQIGRNQYDCNVFRADFATGTGYNGWATIDVEYRDPAPYVHAQRYIRYCGIDSRELINPTTYGIGMTYHCYNEMLRMLVAAGKDSEAAYFRSMLPFHMVRFARINQIINEDLHSVFSLPDDMFNALLPDLIAGAHQNADPVVLDVSWISLWFAFNRSFEPTHRNEMLEIAPLIESVYASELSVMKVDMRHLSLMQRRFPDVLIQARPSHFWKAVLNDSPEAVKAVMNLSHSHNFINIRDMMRWVLLPSLQPSLKLVLEEEAWAAANDFEDLMLTDQVYMHRDMLPEPRLDDIERFRQEGFYYTNMLEAPPEIDRVVQYTYEIARLQANMGQFRAALRRIMDDDDWIGFGGVLRTVRVKFFDARPPDDILQGLPFSYDTNEKGGLSYATIKYATETTIFYLIYNVEFSNTPDSLVLINPTYTMTKVFINKRIVERVRVGQILAVLNRRFVAYKGKMRIMDITQSLKMGTKLAAPTV
B2: unnamed (parent)
chain 1: B1 chain 2
chain 2: B1 chain 1

Variants of: B1
Assay: coimmunoprecipitation (IP anti-HA MAb), immunoblot gray-value analysis
Details: with partner chain of the complex shown, five experiments, means ± SDs, parent: 100, read off a plot

| Variant | percent of parent |
| --- | --- |
| chain 1 MSAAILLAPGDVIKRSSEELKQRQIQINLVDWMESEGGKEDKTEPKEESKAEGSKDGEGTQSESGQKEEGGKETKDADVDRRIHTAVGSGSGTKGSGERANENANRGDGKVGGGGGDADAGVGATGTNGGRWVVLTEEIARAIESKYGTKIDVYRDEVPAQIIEVERSLQKELGISREGVAEQTERLRDLRRKEKNGTHAKAVERGGRKQRKKAHGDAQREGVEEEKTSEEPARIGITIEGVMSQKKLLSMIGGVERKMAPIGARESAVMLVSNSIKDVVAATAYFTAPTGDPHWKEVAREASKKKNILAYTSTGGDVKTEFLHLIDHL [chain 1 R281A] | 100 % of WT |
| chain 1 MSAAILLAPGDVIKRSSEELKQRQIQINLVDWMESEGGKEDKTEPKEESKAEGSKDGEGTQSESGQKEEGGKETKDADVDRRIHTAVGSGSGTKGSGERANENANRGDGKVGGGGGDADAGVGATGTNGGRWVVLTEEIARAIESKYGTKIDVYRDEVPAQIIEVERSLQKELGISREGVAEQTERLRDLRRKEKNGTHAKAVERGGRKQRKKAHGDAQREGVEEEKTSEEPARIGITIEGVMSQKKLLSMIGGVERKMAPIGARESAVMLVSNSIKDVVRATAAATAPTGDPHWKEVAREASKKKNILAYTSTGGDVKTEFLHLIDHL [chain 1 Y285A F286A] | 2 % of WT |
| chain 1 MSAAILLAPGDVIKRSSEELKQRQIQINLVDWMESEGGKEDKTEPKEESKAEGSKDGEGTQSESGQKEEGGKETKDADVDRRIHTAVGSGSGTKGSGERANENANRGDGKVGGGGGDADAGVGATGTNGGRWVVLTEEIARAIESKYGTKIDVYRDEVPAQIIEVERSLQKELGISREGVAEQTERLRDLRRKEKNGTHAKAVERGGRKQRKKAHGDAQREGVEEEKTSEEPARIGITIEGVMSQKKLLSMIGGVERKMAPIGARESAVMLVSNSIKDVVRGTGYFTAPTGDPHWKEVAREASKKKNILAYTSTGGDVKTEFLHLIDHL [chain 1 A282G A284G] | 42 % of WT |
| chain 1 MSAAILLAPGDVIKRSSEELKQRQIQINLVDWMESEGGKEDKTEPKEESKAEGSKDGEGTQSESGQKEEGGKETKDADVDRRIHTAVGSGSGTKGSGERANENANRGDGKVGGGGGDADAGVGATGTNGGRWVVLTEEIARAIESKYGTKIDVYRDEVPAQIIEVERSLQKELGISREGVAEQTERLRDLRRKEKNGTHAKAVERGGRKQRKKAHGDAQREGVEEEKTSEEPARIGITIEGVMSQKKLLSMIGGVERKMAPIGARESAVMLVSNSIKDVVRATAAFTAPTGDPHWKEVAREASKKKNILAYTSTGGDVKTEFLHLIDHL [chain 1 Y285A] | 7 % of WT |
| chain 1 MSAAILLAPGDVIKRSSEELKQRQIQINLVDWMESEGGKEDKTEPKEESKAEGSKDGEGTQSESGQKEEGGKETKDADVDRRIHTAVGSGSGTKGSGERANENANRGDGKVGGGGGDADAGVGATGTNGGRWVVLTEEIARAIESKYGTKIDVYRDEVPAQIIEVERSLQKELGISREGVAEQTERLRDLRRKEKNGTHAKAVERGGRKQRKKAHGDAQREGVEEEKTSEEPARIGITIEGVMSQKKLLSMIGGVERKMAPIGARESAVMLVSNSIKDVVRATAYATAPTGDPHWKEVAREASKKKNILAYTSTGGDVKTEFLHLIDHL [chain 1 F286A] | 18 % of WT |
| chain 1 MSAAILLAPGDVIKRSSEELKQRQIQINLVDWMESEGGKEDKTEPKEESKAEGSKDGEGTQSESGQKEEGGKETKDADVDRRIHTAVGSGSGTKGSGERANENANRGDGKVGGGGGDADAGVGATGTNGGRWVVLTEEIARAIESKYGTKIDVYRDEVPAQIIEVERSLQKELGISREGVAEQTERLRDLRRKEKNGTHAKAVERGGRKQRKKAHGDAQREGVEEEKTSEEPARIGITIEGVMSQKKLLSMIGGVERKMAPIGARESAVMLVSNSIKDVVAATAYATAPTGDPHWKEVAREASKKKNILAYTSTGGDVKTEFLHLIDHL [chain 1 R281A F286A] | 1 % of WT |

Variants of: B2
Assay: coimmunoprecipitation (IP anti-Flag MAb), immunoblot gray-value analysis
Details: with partner chain of the complex shown, five experiments, means ± SDs, parent: 100, read off a plot

| Variant | percent of parent |
| --- | --- |
| chain 2 MSAAILLAPGDVIKRSSEELKQRQIQINLVDWMESEGGKEDKTEPKEESKAEGSKDGEGTQSESGQKEEGGKETKDADVDRRIHTAVGSGSGTKGSGERANENANRGDGKVGGGGGDADAGVGATGTNGGRWVVLTEEIARAIESKYGTKIDVYRDEVPAQIIEVERSLQKELGISREGVAEQTERLRDLRRKEKNGTHAKAVERGGRKQRKKAHGDAQREGVEEEKTSEEPARIGITIEGVMSQKKLLSMIGGVERKMAPIGARESAVMLVSNSIKDVVRATAYATAPTGDPHWKEVAREASKKKNILAYTSTGGDVKTEFLHLIDHL [chain 2 F286A] | 57 % of WT |
| chain 2 MSAAILLAPGDVIKRSSEELKQRQIQINLVDWMESEGGKEDKTEPKEESKAEGSKDGEGTQSESGQKEEGGKETKDADVDRRIHTAVGSGSGTKGSGERANENANRGDGKVGGGGGDADAGVGATGTNGGRWVVLTEEIARAIESKYGTKIDVYRDEVPAQIIEVERSLQKELGISREGVAEQTERLRDLRRKEKNGTHAKAVERGGRKQRKKAHGDAQREGVEEEKTSEEPARIGITIEGVMSQKKLLSMIGGVERKMAPIGARESAVMLVSNSIKDVVAATAYFTAPTGDPHWKEVAREASKKKNILAYTSTGGDVKTEFLHLIDHL [chain 2 R281A] | 130 % of WT |
| chain 2 MSAAILLAPGDVIKRSSEELKQRQIQINLVDWMESEGGKEDKTEPKEESKAEGSKDGEGTQSESGQKEEGGKETKDADVDRRIHTAVGSGSGTKGSGERANENANRGDGKVGGGGGDADAGVGATGTNGGRWVVLTEEIARAIESKYGTKIDVYRDEVPAQIIEVERSLQKELGISREGVAEQTERLRDLRRKEKNGTHAKAVERGGRKQRKKAHGDAQREGVEEEKTSEEPARIGITIEGVMSQKKLLSMIGGVERKMAPIGARESAVMLVSNSIKDVVRGTGYFTAPTGDPHWKEVAREASKKKNILAYTSTGGDVKTEFLHLIDHL [chain 2 A282G A284G] | 45 % of WT |
